Several values for one entry are separate records, joined by “and”; a condition that tells them apart may be missing. Identical values can stand only once.
Experiments:
[1] = biological target: Pv-M17Δ53-78, Pv-M17 N-terminal loop deletion mutant (Plasmodium vivax) (UniProt A5K3U9); experiment: crystal structure
AUC [2] = biological target: the molecule itself; experiment: AUC
SEC-MALS = biological target: the molecule itself; experiment: SEC-MALS
AUC [3] = biological target: the molecule itself; experiment: AUC; remark: listed apart in the source
SEC = biological target: the molecule itself; experiment: SEC
AUC [4] = biological target: the molecule itself; experiment: AUC; remark: listed apart in the source

Molecule: Pv-M17Δ53-78, Pv-M17 N-terminal loop deletion mutant (from UniProt A5K3U9 73-621) (enzyme)
- stoichiometry N [1]: 6

B1: PfA-M17, M17 aminopeptidase from Plasmodium falciparum, wild type (enzyme)
chain: MASEVPQVVSLDPTSIPIEYNTPIHDIKVQVYDIKGGCNVEEGLTIFLVNNPGKENGPVKISSKVNDKNVSEFLKDENMEKFNVKLGTSKHFYMFNDNKNSVAVGYVGCGSVADLSEADMKRVVLSLVTMLHDNKLSKLTVVFEINVDKNLFRFFLETLFYEYMTDERFKSTDKNVNMEYIKHLGVYINNADTYKEEVEKARVYYFGTYYASQLIAAPSNYCNPVSLSNAAVELAQKLNLEYKILGVKELEELKMGAYLSVGKGSMYPNKFIHLTYKSKGDVKKKIALVGKGITFDSGGYNLKAAPGSMIDLMKFDMSGCAAVLGCAYCVGTLKPENVEIHFLSAVCENMVSKNSYRPGDIITASNGKTIEVGNTDAEGRLTLADALVYAEKLGVDYIVDIATLTGAMLYSLGTSYAGVFGNNEELINKILNSSKTSNEPVWWLPIINEYRATLNSKYADINNISSSVKASSIVASLFLKEFVQNTAWAHIDIAGVSWNFKARKPKGFGVRLLTEFVLNDAL
- stoichiometry N (AUC [2]): 6
- stoichiometry N (SEC-MALS): ~6
- stoichiometry N (AUC [3]): 2

B2: PfA-M17 (D379A + E461L) (enzyme)
chain: MASEVPQVVSLDPTSIPIEYNTPIHDIKVQVYDIKGGCNVEEGLTIFLVNNPGKENGPVKISSKVNDKNVSEFLKDENMEKFNVKLGTSKHFYMFNDNKNSVAVGYVGCGSVADLSEADMKRVVLSLVTMLHDNKLSKLTVVFEINVDKNLFRFFLETLFYEYMTDERFKSTDKNVNMEYIKHLGVYINNADTYKEEVEKARVYYFGTYYASQLIAAPSNYCNPVSLSNAAVELAQKLNLEYKILGVKELEELKMGAYLSVGKGSMYPNKFIHLTYKSKGDVKKKIALVGKGITFASGGYNLKAAPGSMIDLMKFDMSGCAAVLGCAYCVGTLKPENVEIHFLSAVCENMVSKNSYRPGDIITASNGKTIEVGNTDALGRLTLADALVYAEKLGVDYIVDIATLTGAMLYSLGTSYAGVFGNNEELINKILNSSKTSNEPVWWLPIINEYRATLNSKYADINNISSSVKASSIVASLFLKEFVQNTAWAHIDIAGVSWNFKARKPKGFGVRLLTEFVLNDAL
- binding result (AUC [3]): binds

B3: Pv-M17, M17 aminopeptidase from Plasmodium vivax, wild type (residues 73 – 621) (enzyme)
chain: MATTVPQVVSLDPTTIPIDYHTPIDDLSIEVKDISAEACPADEGLIVFLLNSAPKHSSSGGSGGNGGSAGSSGNGEGGAQIKINSSVKDNTINEFLKEGNMENFTGKLGTSKSFYIANDQKKYVSLAYVGCGPANEETELEIRKVAYALVTLLHDSKHKKVSIIFEIKIEEALFRFFLEHLFYEYVTDERFKSADKSTETDFIKNLSLHIANADAYKGQIDKARVYFYGTYYAAQLIAAPSNYCNPVSLSNAAVELAQKVNLECKILDVKELEELKMGAYLSVGKGSMYPNKFIHLTYKGAQTGASQNEKKKIALIGKGITFDSGGYNLKAAPGSMIDLMKFDMSGCAAVLGCAYCIGTIKPDNVEVHFLSAVCENMVSKNSYRPGDIITASNGKTIEVGNTDAEGRLTLADALVYAEKLGVDYIVDIATLTGAMLYSLGTSYAGVFGNNDQLINKILSSSKTSNEPVWWLPIINEYRSSLNSKYADLNNISSSVKASSVVASLFLKEFIENTPWAHIDIAGVSWNFKARKPKGFGVRLLTEFVLNDAV
- stoichiometry N (SEC-MALS): ~6 and ~2
- stoichiometry N (SEC): 4
- stoichiometry N (AUC [3]): 2
- stoichiometry N (AUC [4]): 6

— paper doi:10.1101/2020.10.08.331538 (bioRxiv, 2020)
